B1: Zinc finger MYM-type protein 2, residues 463 to 506; numbered along this chain, Q9UBW7 (parent)
chain: IMNCCEQCGEYLPSKGAGNNVLVIDGQQKRFCCQSCVSEYKQVG

Variants of: B1
Assay: abundance fitness (aPCA) (normalised: wild type 0, dead -1); higher = more abundant; growth selection in yeast, the domain comes from the species named
Details: Homo sapiens

Abundance fitness of substitutions, site by site:
V43: P 0.144 | D -0.123 | E -0.067 | H -0.361 | T -0.026 | G 0.039 | R -0.039 | L -0.222 | M -0.218 | S -0.159 | A 0.001 | W -0.296 | Q -0.055
S35: P -0.058 | C -0.113 | L -0.136 | Y -0.08 | E 0.006 | H -0.091 | Q -0.065 | W -0.114 | F -0.226 | I 0.024 | A -0.072 | K 0.156 | V -0.092 | M -0.087 | R 0.085 | G 0.024
V37: R -0.112 | C 0.018 | W -0.093 | A -0.063 | Q -0.024 | D -0.227 | G -0.226 | F -0.259 | K -0.101 | M 0.181 | T 0.049 | E 0.109 | S -0.161 | P -0.135
S38: E 0.062 | I -0.106 | P -0.329 | Q -0.01 | M -0.038 | T -0.113 | G -0.024 | C -0.108 | A 0.019 | W -0.197 | L -0.038 | K -0.025 | H -0.183 | D -0.081
Q28: I -0.038 | D 0.189 | P -0.065 | A -0.133 | L -0.346 | K -0.301 | T -0.032 | N -0.29 | V -0.169 | G -0.239 | H 0.117 | M -0.123 | C -0.47 | Y -0.305 | W -0.405
C36: H -0.341 | T -0.106 | P -0.168 | I 0.163 | G -0.303 | S -0.45 | E -0.376 | Q -0.201 | D -0.262 | Y -0.445 | V -0.463 | F -0.665 | R -0.37 | L -0.423 | N -0.273
G44: T -0.118 | E -0.172 | W -0.189 | R -0.058 | L -0.262 | V -0.144 | Q -0.471 | P -0.217 | C -0.157
I24: V -0.088 | T 0.254 | W -0.05 | S -0.09
Q42: R 0.063 | A 0.109 | W -0.398 | G 0.076 | S -0.023 | V 0.151 | K -0.045 | E -0.102 | N 0.438 | L -0.101 | T 0.002 | H -0.08 | P -0.169 | M -0.119
G26: V -0.243 | T -0.291 | L -0.307 | W -0.337 | E -0.077 | I -0.296 | R -0.255 | S -0.065 | Q -0.083 | M -0.384 | C -0.059 | K -0.251 | Y 0.285 | D 0.183 | A -0.059
Q34: F -0.039 | H 0.004 | G -0.017 | Y -0.615 | K -0.213 | C -0.113 | I -0.448 | P -0.033 | N -0.028 | E 0.087 | M 0.044 | D 0.013 | W -0.226 | A 0.061 | V 0.036 | L -0.223 | S 0.009 | T -0.031 | R -0.232
D25: C -0.25 | P -0.456 | T -0.06 | G -0.076 | A -0.117 | Q -0.367 | F -0.174 | K -0.155 | R -0.229 | H 0.126 | W -0.618 | S -0.279 | L -0.455 | E -0.11 | M -0.35 | V -0.51
E39: K 0.33 | P -0.285 | C 0.204 | V 0.086 | A 0.09 | L -0.265 | G 0.095 | W -0.478 | T 0.093 | M 0.087 | S 0.054 | Y 0.032 | Q -0.144
Q27: R -0.206 | V -0.144 | F -0.173 | S -0.172 | G -0.039 | C -0.084 | P -0.218 | L -0.045 | E -0.1 | A -0.045 | W -0.198
R30: L 0.177 | C 0.262 | E 0.3 | D 0.165 | K 0.216 | S 0.111 | F -0.088 | M 0.068 | Y -0.354 | P 0.092 | H -0.464 | G 0.026 | T 0.132 | Q 0.193 | V 0.197
C33: R -0.121 | Q -0.086 | G -0.023 | P -0.342 | D 0.051 | L -0.385 | E 0.008 | M -0.201 | F -0.517 | N -0.164 | T -0.031 | S 0.024 | H -0.09 | A -0.017
K29: R -0.06 | Q -0.283 | M -0.018 | T -0.313 | F -0.17 | W -0.432 | S -0.329 | C -0.752 | H 0.051 | I -0.241 | P -0.499 | E -0.231 | L -0.067 | N -0.464 | V -0.078 | G -0.234 | A -0.235 | Y -0.026
K41: Q 0.006 | P 0.014 | V -0.221 | M -0.059 | S 0.027 | Y -0.41 | G 0.042 | T 0.209 | L -0.122 | D 0.193 | F -0.285 | R 0.03 | A -0.096
Y40: E 0.067 | Q 0.067 | G 0.057 | S 0.121 | N -0.309 | K -0.057 | F -0.334 | I -0.249 | V -0.108 | W 0.002 | D -0.057 | C 0.429 | L -0.163 | T 0.11 | R -0.037 | P 0.192 | M -0.167
F31: S -0.231 | Q -0.119 | G -0.185 | A -0.175 | K -0.719 | W -0.498 | D -0.167 | Y -0.144 | N -0.392 | R -0.366 | H -0.273 | P -0.223 | L -0.248 | V -0.373 | M -0.267
C32: E -0.339 | W -0.559 | M -0.537 | I -0.71 | K -0.439 | A -0.354 | R -0.298 | P -0.454 | V -0.36 | S -0.398 | L -0.451 | N -0.655 | G -0.313 | Y -0.634 | T -0.433 | Q -0.518 | F -0.653

Reference: the Human Domainome abundance scans (Beltran et al. 2025)
